{
  "source": "paper PMC2783173",
  "test_in_all_cases": "split reporter",
  "key": {"[1]": {"biological_target": "HIV-1 Nef (SF2) 2PA (SH3-binding motif mutant), YFP BiFC fusions (HIV-1 (SF2 allele)) (UniProt P03407)"}, "[2]": {"biological_target": "HIV-1 Nef (SF2) D123A, YFP BiFC fusions (HIV-1 (SF2 allele))"}, "[3]": {"biological_target": "HIV-1 Nef (SF2) D123N, YFP BiFC fusions (HIV-1 (SF2 allele))"}, "[4]": {"biological_target": "HIV-1 Nef (SF2) D123V, YFP BiFC fusions (HIV-1 (SF2 allele))"}, "[5]": {"biological_target": "HIV-1 Nef (SF2) F121A, YFP BiFC fusions (HIV-1 (SF2 allele))"}, "[6]": {"biological_target": "HIV-1 Nef (SF2) I109D/L112D/Y115D/F121D, YFP BiFC fusions (HIV-1 (SF2 allele))"}, "[7]": {"biological_target": "HIV-1 Nef (SF2) L112A, YFP BiFC fusions (HIV-1 (SF2 allele))"}, "[8]": {"biological_target": "HIV-1 Nef (SF2) L112D, YFP BiFC fusions (HIV-1 (SF2 allele))"}, "[9]": {"biological_target": "HIV-1 Nef (SF2) L112D/Y115D, YFP BiFC fusions (HIV-1 (SF2 allele))"}, "[10]": {"biological_target": "HIV-1 Nef (SF2) R105E, YFP BiFC fusions (HIV-1 (SF2 allele))"}, "[11]": {"biological_target": "HIV-1 Nef (SF2) R105E/R106E, YFP BiFC fusions (HIV-1 (SF2 allele))"}, "[12]": {"biological_target": "HIV-1 Nef (SF2) Y115D, YFP BiFC fusions (HIV-1 (SF2 allele))"}},
  "data": [
    {"substance": "HIV-1 Nef (SF2) 2PA (SH3-binding motif mutant), YFP BiFC fusions (from UniProt P03407) (natural protein)", "values": [
      {"measurement": "% decrease in BiFC relative to WT", "setting": "[1]", "result": 0, "unit": "%"}
    ]},
    {"substance": "HIV-1 Nef (SF2) D123A, YFP BiFC fusions (natural protein)", "values": [
      {"measurement": "% decrease in BiFC relative to WT", "setting": "[2]", "result": 69.6, "unit": "%"}
    ]},
    {"substance": "HIV-1 Nef (SF2) D123N, YFP BiFC fusions (natural protein)", "values": [
      {"measurement": "% decrease in BiFC relative to WT", "setting": "[3]", "result": 97.1, "unit": "%"}
    ]},
    {"substance": "HIV-1 Nef (SF2) D123V, YFP BiFC fusions (natural protein)", "values": [
      {"measurement": "% decrease in BiFC relative to WT", "setting": "[4]", "result": 52.9, "unit": "%"}
    ]},
    {"substance": "HIV-1 Nef (SF2) F121A, YFP BiFC fusions (natural protein)", "values": [
      {"measurement": "% decrease in BiFC relative to WT", "setting": "[5]", "result": 33, "unit": "%"}
    ]},
    {"substance": "HIV-1 Nef (SF2) I109D/L112D/Y115D/F121D, YFP BiFC fusions (natural protein)", "values": [
      {"measurement": "% decrease in BiFC relative to WT", "setting": "[6]", "result": 99.9, "unit": "%"}
    ]},
    {"substance": "HIV-1 Nef (SF2) L112A, YFP BiFC fusions (natural protein)", "values": [
      {"measurement": "% decrease in BiFC relative to WT", "setting": "[7]", "result": 52.8, "unit": "%"}
    ]},
    {"substance": "HIV-1 Nef (SF2) L112D, YFP BiFC fusions (natural protein)", "values": [
      {"measurement": "% decrease in BiFC relative to WT", "setting": "[8]", "result": 47.5, "unit": "%"}
    ]},
    {"substance": "HIV-1 Nef (SF2) L112D/Y115D, YFP BiFC fusions (natural protein)", "values": [
      {"measurement": "% decrease in BiFC relative to WT", "setting": "[9]", "result": 86.7, "unit": "%"}
    ]},
    {"substance": "HIV-1 Nef (SF2) R105E, YFP BiFC fusions (natural protein)", "values": [
      {"measurement": "% decrease in BiFC relative to WT", "setting": "[10]", "result": 49.9, "unit": "%"}
    ]},
    {"substance": "HIV-1 Nef (SF2) R105E/R106E, YFP BiFC fusions (natural protein)", "values": [
      {"measurement": "% decrease in BiFC relative to WT", "setting": "[11]", "result": 71.1, "unit": "%"}
    ]},
    {"substance": "HIV-1 Nef (SF2) Y115D, YFP BiFC fusions (natural protein)", "values": [
      {"measurement": "% decrease in BiFC relative to WT", "setting": "[12]", "result": 59.1, "unit": "%"}
    ]}
  ]
}
